Values quoted from earlier work, collected in article PMC5512170.

Biological target: SNX27 PDZ (Homo sapiens) (UniProt Q96L92)
Assay: fluorescence polarization

Substance: ß2-AR tail C-tail (from UniProt P07550)
- Kd: 17 µM
